# Test results as given in PMC2119237.
# Where no end group is shown, it is not given here. The star is where a group is joined. AMCA = 7-amino-4-methyl-coumarin-3-acetic acid, Cc1c(CC(=O)*)c(=O)oc2cc(N)ccc12
# Biological target: HLA-DR1 (human (endogenous in WT-100))
# Assay: SEC
binder,measurement,value
"{AMCA}-AILEFRAMAQFSRKTD [AMCA-SP3(1-16), synthetic self-peptide SP3 labelled at the NH2 terminus]",binding capacity relative to IM(18-29),3 fold
